Test results as given in patent US20100272736A1 (KALOBIOS PHARMACEUTICALS, published 2010).

B1: Fab SEQ ID NOs: 13, 4 (Fab, V domains shown)
VH: QVQLVESGGGVVQPGRSLRLSCAASGFTFSSYPLHWVRQAPGKGLEWVSFISYDGSEKYYASSVKGRFTISRDNSENTLYLQMNSLRPEDTAVYYCARNRGDIYYDFTYAMDIWGQGTMVTVSS
VL: DIQMTQSPSSLSASVGDRVTITCRASQSISRWVAWYQQRPGKAPNLLIYDASSLKSGVPSRFSGSGSGTEFTLTISSLQPEDIATYYCQQFWSTPYTFGQGTKLEIK
B2: Fab SEQ ID NOs: 13, 37 (Fab, V domains shown)
VH: QVQLVESGGGVVQPGRSLRLSCAASGFTFSSYPLHWVRQAPGKGLEWVSFISYDGSEKYYASSVKGRFTISRDNSENTLYLQMNSLRPEDTAVYYCARNRGDIYYDFTYAMDIWGQGTMVTVSS
VL: DIQMTQSPSSLSASVGDRVTITCRASQSISRWVAWYQQRPGKAPNLLIYDASSLKSGVPSRFSGSGSGTEFTLTISSLQPEDIATYYCQQFWGTPYTFGQGTKLEIK
B3: Fab SEQ ID NOs: 5, 6 (Fab, V domains shown)
VH: QVQLVESGGGVVQPGRSLRLSCTASGFSFSSYGMHWVRQAPGKGLEWVAVIWYNGKEISYADSVKGRFTVSRDNPKNTLYLQMSSLRTEDTAVYYCARNRGDIYYDFTYAMDIWGQGTMVTVSS
VL: AIQLTQSPSFLSASVGDRVTITCRASQGISTYLAWYQQKPGKAPKLLIYAASSLQSGVPSRFSGSGSGTDFTLTISSLQPEDVATYYCQQFWSTPYTFGQGTKLEIK
B4: Fab SEQ ID NOs: 13, 10 (Fab, V domains shown)
VH: QVQLVESGGGVVQPGRSLRLSCAASGFTFSSYPLHWVRQAPGKGLEWVSFISYDGSEKYYASSVKGRFTISRDNSENTLYLQMNSLRPEDTAVYYCARNRGDIYYDFTYAMDIWGQGTMVTVSS
VL: DIQLTQSPSFLSASVGDRVTITCRASQGISTYLAWYQQKPGKAPKLLIYDASALQSGVPSRFSGSGSGTEFTLTISSLQPEDVATYYCQQFWSTPYTFGQGTKLEIK
B5: Fab SEQ ID NOs 3, 4 (Fab, V domains shown)
VH: QVQLVESGGGVVQPGGSLRLSCAASGFTFSTAGMHWVRQAPGKGLEWVAVIWYNGKEISYADSVKGRFTVSRDNPKNTLYLQMSSLRTEDTAVYYCARNRGDIYYDFTYAMDIWGQGTMVTVSS
VL: DIQMTQSPSSLSASVGDRVTITCRASQSISRWVAWYQQRPGKAPNLLIYDASSLKSGVPSRFSGSGSGTEFTLTISSLQPEDIATYYCQQFWSTPYTFGQGTKLEIK
B6: Fab SEQ ID NOs. 24, 26 (Fab, V domains shown)
VH: EVQLVESGGGVVQPGRSLRLSCAASGFTFSNYPMHWVRQAPGKGLEWVAVISYDGSEKWYADSVKGRFTISRDNSKNTLYLEMNSLRPEDTAVYYCARNRGDIYYDFTYAMDIWGQGTTVTVSS
VL: DIQLTQSPSTLSASVGDSVTITCRASEGVDRWLAWYQQKPGRAPKLLIYDASTLQSGVPSRFSGSGSGTEFSLTISSLQPDDVATYYCQHFWGTPYTFGQGTKLEIK
B7: Fab SEQ ID NOs. 35. 36 (Fab, V domains shown)
VH: EVQLVESGGGVVQPGRSLRLSCAASGFTFSNYPMHWVRQAPGKGLEWVAVISYDGSEKWYADSVKGRFTISRDNSKNTLYLEMNSLRPEDTAVYYCARNRGDIYYDFTYAMDYWGQGTTVTVSS
VL: DIQLTQSPSTLSASVGDSVTITCRASEGVDRWLAWYQQKPGRAPKLLIYDASTLQSGVPSRFSGSGSGTEFSLTISSLQPDDVATYYCQHFWSTPYTFGQGTKLEIK

biological target: PcrV on Pseudomonas aeruginosa strain PA103 (type III secretion system) (Pseudomonas aeruginosa strain PA103); test: cell-based or functional assay

For B1, which “IC50 (nM), TTSS-dependent cytotoxicity assay (PA103 killing of P3-X63-Ag8 myeloma cells, propidium iodide flow cytometry)” value (from here on “IC50 (nM)”) is on record?
The value was 20 nM.

Which “IC50 (nM)” value does the source give for B2 here?
Its value is 12 nM.

How did the “IC50 (nM)” value turn out when B3 was run?
Its value is 50.2 nM.

For B4, which “IC50 (nM)” value is on record?
The value was 25.5 nM.

With B5 as the binder, how does the “IC50 (nM)” value read?
The value was 35.1 nM.

How did the “IC50 (nM)” value turn out when B6 was run?
The value was 25.5 nM.

Which “IC50 (nM)” value does the source give for B7 here?
Its value is 61.4 nM.
